The results in this text go back to patent EP4772193A1 (Teijin Pharma Limited, dated 2026).

The target of assay [1] is T1, recombinant human soluble gpNMB (recombinant human gpNMB-FLAG-His) (human, UniProt Q14956 23-498).
T1 sequence: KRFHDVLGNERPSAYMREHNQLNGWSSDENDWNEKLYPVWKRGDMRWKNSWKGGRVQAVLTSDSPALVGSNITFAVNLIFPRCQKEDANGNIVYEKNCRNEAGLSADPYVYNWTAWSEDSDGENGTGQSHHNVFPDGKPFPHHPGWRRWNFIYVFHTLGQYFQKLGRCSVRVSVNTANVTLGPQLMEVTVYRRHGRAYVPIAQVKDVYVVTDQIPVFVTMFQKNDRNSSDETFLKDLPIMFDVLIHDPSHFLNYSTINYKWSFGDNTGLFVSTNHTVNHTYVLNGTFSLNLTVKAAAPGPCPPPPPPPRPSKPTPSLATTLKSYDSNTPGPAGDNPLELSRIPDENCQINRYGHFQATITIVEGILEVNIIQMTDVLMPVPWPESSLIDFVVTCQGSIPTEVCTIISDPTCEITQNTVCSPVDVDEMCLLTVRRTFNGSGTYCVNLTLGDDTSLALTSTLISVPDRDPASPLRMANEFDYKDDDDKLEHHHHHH
In words: antigen ELISA. In general terms: An ELISA detects its analyte on a solid surface through an enzyme-linked reagent.

For assay [2], the target named is T1, recombinant human soluble gpNMB …. Put plainly: antigen ELISA, vs hGPN06-1_H1L1.
For assay [3] the target is unchanged. In words: antigen ELISA. The source holds these as a separate data set.
Assay [4] has the same target. Put plainly: antigen ELISA. The source holds these as a separate data set.
The target is the same in assay [5]. In words: antigen ELISA. This is another data set of the same source.
Assay [6] has the same target. Put plainly: antigen ELISA. This is another data set of the same source.
Assay [7] shares this target. Put plainly: antigen ELISA, vs hGPN18-2_H2L3.
Assay [8] has the same target. Put plainly: antigen ELISA, vs hGPN18-2_H2L3. The source holds these as a separate data set.
For assay [9] the target is unchanged. In words: antigen ELISA, vs hGPN18-2_H2L3. This is another data set of the same source.
Assay [10] has the same target. Put plainly: SPR, antibody 100 nM over captured gpNMB-FLAG-His, 36C. Background: In SPR one partner is held on a chip, and binding of the other changes the refractive index at the surface.
The target in assay [11] is T2, human gpNMB (Human Osteoactivin, His-tag, AcroBioSystems) (human, UniProt Q14956-2 23-486, limits assumed).
T2 sequence (looked up): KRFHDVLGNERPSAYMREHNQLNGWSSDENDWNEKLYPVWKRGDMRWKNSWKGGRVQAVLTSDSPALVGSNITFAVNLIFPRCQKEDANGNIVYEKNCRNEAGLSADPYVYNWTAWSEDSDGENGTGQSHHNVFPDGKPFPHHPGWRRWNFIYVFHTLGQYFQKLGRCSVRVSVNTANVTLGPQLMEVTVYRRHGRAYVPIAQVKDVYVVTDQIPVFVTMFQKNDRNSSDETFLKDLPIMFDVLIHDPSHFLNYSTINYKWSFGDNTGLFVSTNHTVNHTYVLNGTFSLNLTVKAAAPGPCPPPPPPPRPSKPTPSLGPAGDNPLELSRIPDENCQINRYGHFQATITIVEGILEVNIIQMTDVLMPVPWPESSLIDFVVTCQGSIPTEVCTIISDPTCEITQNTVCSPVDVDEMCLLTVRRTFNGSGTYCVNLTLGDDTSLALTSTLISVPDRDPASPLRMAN
Put plainly: SPR Biacore 8K, antibody captured on protein A, gpNMB as analyte.

In assay [12] the target is T1, recombinant human soluble gpNMB …. Put plainly: SPR single-cycle kinetics, antibody over captured gpNMB-FLAG-His, 36C, mean of 2.
The target in assay [13] is T3, recombinant mouse soluble gpNMB (recombinant mouse gpNMB-FLAG-His) (mouse, UniProt Q99P91 23-502).
T3 sequence: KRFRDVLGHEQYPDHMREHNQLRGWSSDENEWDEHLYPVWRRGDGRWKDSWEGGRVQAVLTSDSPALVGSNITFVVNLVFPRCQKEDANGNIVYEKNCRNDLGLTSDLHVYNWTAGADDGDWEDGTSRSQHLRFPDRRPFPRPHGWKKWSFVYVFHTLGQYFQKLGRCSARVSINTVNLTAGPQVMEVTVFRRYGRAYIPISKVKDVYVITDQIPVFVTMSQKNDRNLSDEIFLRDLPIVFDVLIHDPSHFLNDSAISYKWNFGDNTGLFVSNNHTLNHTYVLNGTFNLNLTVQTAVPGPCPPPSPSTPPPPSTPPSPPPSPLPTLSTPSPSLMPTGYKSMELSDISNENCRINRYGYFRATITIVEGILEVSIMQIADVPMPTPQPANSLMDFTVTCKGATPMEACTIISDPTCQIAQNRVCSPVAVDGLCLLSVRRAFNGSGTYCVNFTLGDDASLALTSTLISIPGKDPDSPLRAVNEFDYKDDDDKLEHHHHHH
Described as above.

Like-named read-outs stand apart in the source and are kept apart here.

B1: hGPN06-1_H1L1 VH Y102A (antibody, V domains shown)
VH: QVQLVQSGAEVKKPGASVKVSCKASGYTFTDNWMGWVKQRPGQGLEWIGAIDPSDSFTNYNQNFKGRVTMTVDTSISTAYMELSRLRSDDSAVYFCTRSGYAGSPKLGGDYWGQGTLVTVSS
VL: EIVLTQSPSSLSASVGDRVTITCSASSSISYMHWYQQKSGTAPKLLIYSTSNLASGVPSRFSGSGSGTDFTFTISSLQPEDAATYYCHQWNSYPCTFGGGTKLEIK
A word on the EC50: it is the concentration needed to bring the measured effect to its halfway point. On to B1, for which the 50% effective concentration (EC50) in [1] stood at 2.21 nM. In addition, the Relative binding activity in [2] is 0.68.

B2: hGPN06-1_H1L1 VH Y111A (antibody, V domains shown)
VH: QVQLVQSGAEVKKPGASVKVSCKASGYTFTDNWMGWVKQRPGQGLEWIGAIDPSDSFTNYNQNFKGRVTMTVDTSISTAYMELSRLRSDDSAVYFCTRSGYYGSPKLGGDAWGQGTLVTVSS
VL: EIVLTQSPSSLSASVGDRVTITCSASSSISYMHWYQQKSGTAPKLLIYSTSNLASGVPSRFSGSGSGTDFTFTISSLQPEDAATYYCHQWNSYPCTFGGGTKLEIK
As for B2, in assay [1], the EC50 is 0.584 nM. Also, in assay [2], the Relative binding activity stood at 0.99.

B3: hGPN18-2_H2L3 (antibody, V domains shown)
VH: QVQLVQSGPGLVQPTQTLTLTCSFSGFSLSTSVMGVGWIRQPSGKGLEWLADIWWDDDKDYNPSLKSRLTISKDTSKNQVVLTMTNMDTVDTATYYCARTYYSNYEYYGMDYWGQGTLVTVSS
VL: DIVMTQSPDSLAVSLGERATINCRSSQTIILSNGNTYLEWYQQKPGQPPKLLIYKVSNRFSGVPDRFSGSGSGTDFTLTISSLQAEDVAVYYCFQGSHVPFTFGSGTKLEIKR
notes: humanized; also called humanized anti-gpNMB antibody H2L3
As usually defined, the Kd is the constant that tells how readily two partners part at equilibrium. A word on the koff: it is the rate constant with which the complex falls apart. Broadly, the kon is a measure of how fast the partners come together. In the case of B3, the EC50 in assay [3] turned out to be 1.84 nM; in assay [4] it was 4.39 nM; in [5], 4.39 nM; in [6] it was 4.39 nM. Besides, the Relative binding activity in [7], in [8] and in [9] was 1 each time. Further, the Kd in assay [10] worked out at 0.00778 nM. Further, the off-rate constant (koff) in assay [10] stood at 7.49e-07 s⁻¹. In addition, the on-rate (kon) in [10] turned out to be 96200 M⁻¹ s⁻¹.

B4: hGPN18-5_H3L1 (antibody, V domains shown)
VH: QVQLVQSGAEVKKPGASVKVSCKASGYTFTTYWMNWVRQAPGQGLEWIGAINPSNDYTEYNQKFKDRAIMTADKSTSTVYMELSSLRSEDTAVYYCGRSYSPDYWGQGTTVTVSS
VL: DIQMTQSPSSLSASVGDRVTITCKASQNVDNHVAWFQQKPGKAPKALIYSASYRYSGVPSRFSGSGSGTDFTLTISSLQPEDFATYFCQQYKSYPFTFGGGTKLEIK
notes: humanized; also called hGPN18-5 VH3+VL1
As to B4, in [11], the dissociation constant Kd worked out at 711 nM, the koff is 0.00484 s⁻¹ and the kon turned out to be 6810 M⁻¹ s⁻¹. Besides, in assay [12], the Kd was 11.3 nM, the koff was 0.00138 s⁻¹ and the kon was found to be 142000 M⁻¹ s⁻¹. In [13], the equilibrium dissociation constant (Kd) came out at 17.8 nM, the dissociation rate constant (koff) was found to be 0.000862 s⁻¹ and the kon was found to be 52900 M⁻¹ s⁻¹.

B5: hGPN18-5_H1L1 (antibody, V domains shown)
VH: QVQLVQSGAEVKKPGASVKVSCKASGYTFTTYWMNWVRQAPGQGLEWIGAINPSNDYTEYNQKFKDRVTMTADTSTSTVYMELSSLRSEDTAVYYCGRSYSPDYWGQGTTVTVSS
VL: DIQMTQSPSSLSASVGDRVTITCKASQNVDNHVAWFQQKPGKAPKALIYSASYRYSGVPSRFSGSGSGTDFTLTISSLQPEDFATYFCQQYKSYPFTFGGGTKLEIK
notes: humanized; also called hGPN18-5_VH1+VL1
In the case of B5, the Kd in assay [11] was determined as 651 nM; in assay [12] it was 16.2 nM; in assay [13], 21.9 nM. In addition, the koff in [11] was 0.00432 s⁻¹; in assay [12], 0.00307 s⁻¹; in assay [13], 0.00143 s⁻¹. Further, the results for the kon in assay [11], in assay [12] and in [13] were 6640 M⁻¹ s⁻¹, 308000 M⁻¹ s⁻¹ and 73800 M⁻¹ s⁻¹, respectively.

B6: hGPN18-5_H3L3 (antibody, V domains shown)
VH: QVQLVQSGAEVKKPGASVKVSCKASGYTFTTYWMNWVRQAPGQGLEWIGAINPSNDYTEYNQKFKDRAIMTADKSTSTVYMELSSLRSEDTAVYYCGRSYSPDYWGQGTTVTVSS
VL: DIQMTQSPSSLSASVGDRVTITCKASQNVDNHVAWHQQKPGKAPKALIYSASYRYSGVPDRFTGSGSGTDFTLTISSLQPEDFADYFCQQYKSYPFTFGGGTKLEIK
notes: humanized; also called hGPN18-5_VH3+VL3
As to B6, the dissociation constant Kd is 352 nM in [11], 6.98 nM in [12] and 6.39 nM in [13]. The values for the koff in assay [11], in assay [12] and in [13] were 0.00201 s⁻¹, 0.00121 s⁻¹ and 0.000711 s⁻¹, respectively. Moreover, the kon in assay [11] amounted to 5720 M⁻¹ s⁻¹; in assay [12] it was 176000 M⁻¹ s⁻¹; in assay [13], 111000 M⁻¹ s⁻¹.

B7: hGPN18-5_H0L0 (antibody, V domains shown)
VH: QVQLQQSGAELAKPGTSVKMSCKASGYTFTTYWMNWVKQRPGQDLEWIGAINPSNDYTEYNQKFKDKAILTADKSSNTAYMQLSSLTSEDSAVYYCGRSYSPDYWGQGTTLTVSS
VL: DIVMTQSQKFMSTSVGDRVSVTCKASQNVDNHVAWHQQKPGQSPKALIYSASYRYSGVPDRFTGSGSGTDFTLTIRDVQSEDLADYFCQQYKSYPFTFGSGTELEIK
notes: chimeric antibody with mouse GPN18-5 variable regions (VH0, VL0); also called hGPN18-5_VH0+VL0; HGPN18-5_VH0+VL0
In assay [11], B7 registered a Kd of 237 nM, a koff of 0.002 s⁻¹ and an on-rate constant (kon) of 8440 M⁻¹ s⁻¹. Moreover, in [12], the Kd came to 3.08 nM, the off-rate constant (koff) amounted to 0.000727 s⁻¹ and the kon was found to be 237000 M⁻¹ s⁻¹. Also, in assay [13], the Kd turned out to be 5.31 nM, the koff was 0.00075 s⁻¹ and the kon amounted to 142000 M⁻¹ s⁻¹.

B8: hGPN18-2_H0L0 (antibody, V domains shown)
VH: QVTLKESGPGILQPSQTLSLTCSFSGFSLSTSVMGVGWIRQPSGKGLEWLADIWWDDDKDYNPSLKSRLTISKDTSKNQVFLKIASVDTADTATYYCARTYYSNYEYYGMDYWGQGTSVTVSS
VL: DVLMTQTPLSLPVSLGDQASISCRSSQTIILSNGNTYLEWYLQKPGQSPKLLIYKVSNRFSGVPDRFSGSGSGTDFTLKISRVEAEDLGVYYCFQGSHVPFTFGSGTKLEIK
notes: human chimeric antibody: mouse GPN18-2 variable regions; also called human chimeric antibody of GPN18-2
Turning to B8, in assay [3], the EC50 was found to be 1.21 nM. Moreover, in [10], the Kd worked out at 0.00346 nM, the koff stood at 4.71e-07 s⁻¹ and the kon was determined as 141000 M⁻¹ s⁻¹.
